From the supplement of paper PMC10567573

B1: BTBD10 (parent)
chain: DRKLHSRPRKLYKHSSTSSRIAKG

Variants of: B1
Experiment: protein stability index of a GFP-peptide fusion (GPS, HEK-293T) (PSI 1-6); higher = more stable
Details: c terminus: a fixed tail appended
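Further: lentivirally expressed fusions sorted by FACS into six bins by GFP to DsRed ratio, PSI derived from sequencing read proportions per bin multiplied by bin number.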

Compared with DRKLHSRPRKLYKHFSTSSRIAKG [S15F], DRKLHSRPRKLYKHKSTSSRIAKG [S15K] is higher in protein stability index: 3 for the first, 3.59 for the second.

First: DRKLHSRPRKLYKHQSTSSRIAKG [S15Q]
Second: DRKLHSRPRKLYKHPSTSSRIAKG [S15P]
The protein stability index of the first is lower: 3.85 for the first, 4.05 for the second.

Compared with DRKLHSRPRKLYKHISTSSRIAKG [S15I], DRKLHSRPRKLYKHESTSSRIAKG [S15E] is higher in protein stability index: 3.43 for the first, 4.06 for the second.

Going from DRKLHSRPRKLYKHCSTSSRIAKG [S15C] to DRKLHSRPRKLYKHVSTSSRIAKG [S15V], the protein stability index falls from 3.89 to 3.88.

First: DRKLHSRPRKLYKHDSTSSRIAKG [S15D]
Second: DRKLHSRPRKLYKHASTSSRIAKG [S15A]
The protein stability index of the first is lower: 4.22 for the first, 4.23 for the second.

First: DRKLHSRPRKLYKHHSTSSRIAKG [S15H]
Second: DRKLHSRPRKLYKHYSTSSRIAKG [S15Y]
The protein stability index of the first is lower: 3.25 for the first, 3.67 for the second.

Compared with DRKLHSRPRKLYKHTSTSSRIAKG [S15T], DRKLHSRPRKLYKHMSTSSRIAKG [S15M] is lower in protein stability index: 4.17 for the first, 3.1 for the second.

First: DRKLHSRPRKLYKHRSTSSRIAKG [S15R]
Second: DRKLHSRPRKLYKHWSTSSRIAKG [S15W]
The protein stability index of the first is higher: 4.12 for the first, 3.1 for the second.

Compared with DRKLHSRPRKLYKHNSTSSRIAKG [S15N], DRKLHSRPRKLYKHGSTSSRIAKG [S15G] is higher in protein stability index: 3.66 for the first, 4.49 for the second.

Compared with DRKLHSRPRKLYKHLSTSSRIAKG [S15L], DRKLHSRPRKLYKESSTSSRIAKG [H14E] is higher in protein stability index: 3.71 for the first, 4.13 for the second.

First: DRKLHSRPRKLYKLSSTSSRIAKG [H14L]
Second: DRKLHSRPRKLYKMSSTSSRIAKG [H14M]
The protein stability index of the first is lower: 3.4 for the first, 3.67 for the second.

Compared with DRKLHSRPRKLYKTSSTSSRIAKG [H14T], DRKLHSRPRKLYKDSSTSSRIAKG [H14D] is lower in protein stability index: 4.19 for the first, 3.58 for the second.

Going from DRKLHSRPRKLYKFSSTSSRIAKG [H14F] to DRKLHSRPRKLYKPSSTSSRIAKG [H14P], the protein stability index falls from 4.44 to 3.54.

Compared with DRKLHSRPRKLYKSSSTSSRIAKG [H14S], DRKLHSRPRKLYKWSSTSSRIAKG [H14W] is lower in protein stability index: 3.66 for the first, 3.61 for the second.

Compared with DRKLHSRPRKLYKQSSTSSRIAKG [H14Q], DRKLHSRPRKLYKISSTSSRIAKG [H14I] is higher in protein stability index: 3.79 for the first, 3.88 for the second.

Going from DRKLHSRPRKLYKYSSTSSRIAKG [H14Y] to DRKLHSRPRKLYKRSSTSSRIAKG [H14R], the protein stability index rises from 2.79 to 4.05.

First: DRKLHSRPRKLYKCSSTSSRIAKG [H14C]
Second: DRKLHSRPRKLYKNSSTSSRIAKG [H14N]
The protein stability index of the first is lower: 4.41 for the first, 4.43 for the second.

Compared with DRKLHSRPRKLYKKSSTSSRIAKG [H14K], DRKLHSRPRKLYKHSSTPSRIAKG [S18P] is higher in protein stability index: 3.64 for the first, 3.93 for the second.

Compared with DRKLHSRPRKLYKHSSTQSRIAKG [S18Q], DRKLHSRPRKLYKHSSTLSRIAKG [S18L] is higher in protein stability index: 3.95 for the first, 4.3 for the second.

Compared with DRKLHSRPRKLYKHSSTKSRIAKG [S18K], DRKLHSRPRKLYKHSSTYSRIAKG [S18Y] is lower in protein stability index: 3.4 for the first, 2.88 for the second.

Compared with DRKLHSRPRKLYKHSSTMSRIAKG [S18M], DRKLHSRPRKLYKHSSTWSRIAKG [S18W] is lower in protein stability index: 3.63 for the first, 2.71 for the second.

Compared with DRKLHSRPRKLYKHSSTVSRIAKG [S18V], DRKLHSRPRKLYKHSSTFSRIAKG [S18F] is lower in protein stability index: 4.07 for the first, 3.04 for the second.

First: DRKLHSRPRKLYKHSSTNSRIAKG [S18N]
Second: DRKLHSRPRKLYKHSSTHSRIAKG [S18H]
The protein stability index of the first is higher: 4.36 for the first, 3.6 for the second.

First: DRKLHSRPRKLYKHSSTESRIAKG [S18E]
Second: DRKLHSRPRKLYKHSSTGSRIAKG [S18G]
The protein stability index of the first is higher: 4.38 for the first, 3.99 for the second.

Going from DRKLHSRPRKLYKHSSTCSRIAKG [S18C] to DRKLHSRPRKLYKHSSTISRIAKG [S18I], the protein stability index rises from 3.27 to 3.54.

First: DRKLHSRPRKLYKHSSTRSRIAKG [S18R]
Second: DRKLHSRPRKLYKHSSTDSRIAKG [S18D]
The protein stability index of the first is lower: 3.63 for the first, 4.13 for the second.

Going from DRKLHSRPRKLYKHSSTASRIAKG [S18A] to DRKLHSRPRKLYKHSSTTSRIAKG [S18T], the protein stability index falls from 4.42 to 3.65.

Going from DRKLHSRPRKLYKHSHTSSRIAKG [S16H] to DRKLHSRPRKLYKHSCTSSRIAKG [S16C], the protein stability index falls from 3.55 to 3.43.

First: DRKLHSRPRKLYKHSYTSSRIAKG [S16Y]
Second: DRKLHSRPRKLYKHSQTSSRIAKG [S16Q]
The protein stability index of the first is lower: 3.45 for the first, 4.18 for the second.

Going from DRKLHSRPRKLYKHSATSSRIAKG [S16A] to DRKLHSRPRKLYKHSETSSRIAKG [S16E], the protein stability index falls from 4.32 to 3.99.

First: DRKLHSRPRKLYKHSKTSSRIAKG [S16K]
Second: DRKLHSRPRKLYKHSRTSSRIAKG [S16R]
The protein stability index of the first is lower: 2.94 for the first, 3.78 for the second.

Compared with DRKLHSRPRKLYKHSMTSSRIAKG [S16M], DRKLHSRPRKLYKHSWTSSRIAKG [S16W] is lower in protein stability index: 4 for the first, 3.25 for the second.

Compared with DRKLHSRPRKLYKHSITSSRIAKG [S16I], DRKLHSRPRKLYKHSNTSSRIAKG [S16N] is higher in protein stability index: 3.65 for the first, 4.28 for the second.

Compared with DRKLHSRPRKLYKHSLTSSRIAKG [S16L], DRKLHSRPRKLYKHSPTSSRIAKG [S16P] is lower in protein stability index: 3.92 for the first, 3.87 for the second.

Going from DRKLHSRPRKLYKHSVTSSRIAKG [S16V] to DRKLHSRPRKLYKHSFTSSRIAKG [S16F], the protein stability index falls from 4.03 to 2.17.

Compared with DRKLHSRPRKLYKHSDTSSRIAKG [S16D], DRKLHSRPRKLYKHSTTSSRIAKG [S16T] is higher in protein stability index: 3.83 for the first, 4.35 for the second.

Going from DRKLHSRPRKLYKHSGTSSRIAKG [S16G] to DRKLHSRPRKLYKHSSTSCRIAKG [S19C], the protein stability index rises from 3.52 to 3.62.

Going from DRKLHSRPRKLYKHSSTSARIAKG [S19A] to DRKLHSRPRKLYKHSSNSSRIAKG [T17N], the protein stability index falls from 3.55 to 3.18.

Compared with DRKLHSRPRKLYKHSSISSRIAKG [T17I], DRKLHSRPRKLYKHSSKSSRIAKG [T17K] is higher in protein stability index: 3.56 for the first, 4.33 for the second.

Going from DRKLHSRPRKLYKHSSYSSRIAKG [T17Y] to DRKLHSRPRKLYKHSSDSSRIAKG [T17D], the protein stability index rises from 3.08 to 4.54.

Compared with DRKLHSRPRKLYKHSSFSSRIAKG [T17F], DRKLHSRPRKLYKHSSPSSRIAKG [T17P] is higher in protein stability index: 3.24 for the first, 3.88 for the second.

Going from DRKLHSRPRKLYKHSSMSSRIAKG [T17M] to DRKLHSRPRKLYKHSSASSRIAKG [T17A], the protein stability index rises from 3.28 to 3.7.

Compared with DRKLHSRPRKLYKHSSGSSRIAKG [T17G], DRKLHSRPRKLYKHSSSSSRIAKG [T17S] is higher in protein stability index: 2.9 for the first, 3.86 for the second.

Compared with DRKLHSRPRKLYKHSSWSSRIAKG [T17W], DRKLHSRPRKLYKHSSQSSRIAKG [T17Q] is higher in protein stability index: 2.2 for the first, 3.98 for the second.

Going from DRKLHSRPRKLYKHSSHSSRIAKG [T17H] to DRKLHSRPRKLYKHSSRSSRIAKG [T17R], the protein stability index rises from 3.63 to 4.45.

Going from DRKLHSRPRKLYKHSSVSSRIAKG [T17V] to DRKLHSRPRKLYKHSSESSRIAKG [T17E], the protein stability index rises from 3.81 to 4.41.

First: DRKLHSRPRKLYKHSSCSSRIAKG [T17C]
Second: DRKLHSRPRKLYKHSSLSSRIAKG [T17L]
The protein stability index of the first is lower: 3.35 for the first, 4.48 for the second.
